{"source": "patent US20110097312A1", "about": "“ANTI-CANCER VACCINES” (BOARD OF REGENTS, THE UNIVERSITY OF TEXAS SYSTEM, priority 2008, published 2011)", "key": {"HLA-A2": {"target": "HLA-A2 (Homo sapiens, UniProt P04439, D140Y/D185E/D98H/E176V/E277Q/G131W/G231S/I119V/I121R/I166T/I218V/L300P/L318F/N151K/N90K/P208A/P217A/Q86G/Q94H/R138H/R169H/T345S)", "test": "Peptide-binding assay: HLA-A2 stabilization on T2 cells", "details": "HLA-A2 stabilization on T2 cells relative to PR1", "excerpt": "(§1) Nonameric peptides derived from cyclin E1 and cyclin E2 and predicted to bind to the HLA-A2 allele have similar amino acid sequences, differing only at position 7. Thus, the binding of CCNE1144-152 (cyclin E1 derived) and […] (cyclin E2 derived) was compared to that of PR1 by a peptide-binding assay. […] In 3 of 7 donors, CCNE1144-152-stimulated CTL lines killed both CCNE1144-152 and CCNE2144-152-pulsed T2 cells but not non-peptide-pulsed T2 cells and irrelevant peptide-pulsed T2 cells. In 4 of 7 same donors, CCNE2144-152-stimulated CTL lines killed both CCNE2144-152 and CCNE1144-152-pulsed T2 cells but not non-peptide-pulsed T2 cells and irrelevant peptide-pulsed T2 cells."}, "[1]": {"system": "peptide-pulsed T2 cells, HLA-A2 transfected K562", "test": "Elicitation of cyclin E peptide-specific CTL lines and killing of targets", "format": "cell-based, human", "details": "for donors in which peptide-stimulated CTL lines killed CCNE1144-152 and CCNE2144-152-pulsed T2 cells: PBMCs from 7 HLA-A2 positive normal donors", "excerpt": "as §1\nThus, each peptide-specific CTLs can recognize both peptides with HLA-A2, but the immunogenicity of each peptide is different between individuals. Moreover, one of 4 CCNE1144-152-stimulated CTL lines which killed CCNE1144-152-pulsed T2 cell killed HLA-A2 transfected K562 leukemic cell line which is over-expressing cyclin E1 protein, but not non-transfected K562 leukemic cell line. Thus, CCNE1144-152-specific CTL can distinguish leukemic cell lines from normal PBMCs. From the data, it was concluded that cyclin E1/E2 derived peptides are tumor antigens, because 1) cyclin E1/E2 are highly over-expressed in hematological malignancy, 2) cyclin E1/E2 peptides can sufficiently bind to HLA-A2 to stimulate CTL and 3) CCLE1144-152 specific CTL preferentially kills leukemic cell lines HLA-A2 restrictively."}, "[2]": {"target": "HLA-A2.1 (HLA-A*0201) with β2-microglobulin (human)", "test": "cell-based or functional assay"}, "peptide-loaded T2 cells": {"system": "peptide-loaded T2 cells", "test": "Induction of primary CTL responses; cytotoxicity toward peptide-loaded T2 cells", "description": "Induction of Primary CTL responses to peptides. These peptides were next used to stimulate T cells specific for peptide-coated targets. PBMC from a normal healthy donor heterozygous for HL-A2.1 were stimulated with peptide-pulsed T2 cells. […] Briefly, T2 cells (which co-express the costimulatory molecule B7.1) were washed 3 times in serum-free RPMI culture media supplemented with penicillin/streptomycin and glutamine (CM) and incubated with peptide at 20 μg/mL for 2 hr in CM. The peptide loaded T2 cells were then irradiated with 7500 cGy, washed once, and suspended with freshly isolated PBMC at a 1:1 ratio in CM supplemented with 10% human serum (HS) (Sigma, St. Louis, Mo.). After 7 days in culture, a second stimulation was performed and the following day, 60 IU/ml of recombinant human interleukin-2 (rhIL2) (Biosource International, Camarillo, Calif.) was added. After 14 days in culture a third stimulation was performed, followed on day 15 by addition of rhIL-2. A fourth stimulation was performed on day 21 followed on day 22 by the addition of rhIL2. After a total of 27 days in culture, the peptide-stimulated T cells were harvested and tested for peptide-specific cytotoxicity toward Calcein AM-labeled T2 cells, leukemia cell lines, and fresh human leukemia cells, as merely exemplary embodiments. […]"}, "[3]": {"target": "HLA-A2.1 (HLA-A*0201) with β2-microglobulin (human)", "test": "peptide-binding assay: stabilisation of HLA-A2 on T2 cells, fluorescence relative to PR1"}, "myeloid leukemia": {"system": "myeloid leukemia", "details": "human, in vivo", "excerpt": "PR1 peptide vaccine can elicit PR1-CTL immunity in patients with myeloid leukemia. […] To test this in refractory leukemia patients, a phase I/II vaccine study was initiated. HLA-A2+ patients with CML (interferon-resistant or relapsed after BMT), AML (smoldering relapse or ≧2nd CR) or MDS (RAEB or RAEBt) with no detectable antibodies to proteinase 3 (no detectable cANCA) were eligible. Patients that relapsed after BMT or those ineligible for BMT were also eligible for study. Pregnant patients, HIV+ patients, and those with known vasculitis were excluded. Patients were required to have immunosuppression (i.e. cyclosporine, steroids) discontinued 4 weeks prior to study entry.\nPrimary endpoints were (1) toxicity assessment including the induction of autoimmunity resembling Wegener's granulomatosis, the systemic vasculitis associated with cANCA antibodies; and (2) induction of an immune response assessed by cytokine flow cytometry (CFC) of γ-IFN and PR1/HLA-A2 tetramer staining of PBMC before and 3 weeks after the last vaccination. Secondarily, clinical responses were assessed by standard criteria with bone marrow biopsy, cytogenetic studies (standard chromosome banding) and molecular studies (PCR for bcr-abl or other known abnormalities such as t(15;17), inv16, etc.) 3 weeks after the last vaccination. Patients were seen and evaluated in clinic every 3 weeks during the study period. […]"}, "[4]": {"target": "T1, HLA-A2.1 (HLA-A*0201) with β2-microglobulin (human)", "T1 construct": "In the first assay HLA-A2.1 stood on TAP-deficient T2 cells; In the second assay it was a heterotrimer of HLA-A2.1 heavy chain, peptide and I125-labeled β2-microglobulin in solution", "test": "T2 cell HLA-A2.1 stabilisation (flow cytometry with BB7.2) and I125-β2-microglobulin dissociation from the heterotrimer"}}, "note": "Ends that are not written are not given here."}
{"molecule": "CCNE1144-152: Nonameric peptide derived from cyclin E1, predicted to bind to the HLA-A2 allele (ILLDWLMEV)", "values": [{"measurement": "FI peptide/FI PR1", "setting": "HLA-A2", "result": 1.008}, {"measurement": "peptide-stimulated CTL lines that killed HLA-A2 transfected K562 but not non-transfected K562", "setting": "[1]", "result": "one of 4"}, {"measurement": "donors in which peptide-stimulated CTL lines killed CCNE1144-152 and CCNE2144-152-pulsed T2 cells", "setting": "[1]", "result": "3 of 7"}]}
{"molecule": "BB7.2, mouse monoclonal antibody against HLA-A2.1", "values": [{"measurement": "specific lysis of HLA-A2+ MCF-7 cells by PR1-CTL (calcein AM, 4 hours co-incubation)", "setting": "[2]", "result": 17, "unit": "%"}]}
{"molecule": "KLLLALAGL [MY2]", "values": [{"measurement": "specific lysis of cognate peptide-loaded target cells by CTL line generated against the peptide", "setting": "peptide-loaded T2 cells", "result": "high specific lysis"}]}
{"molecule": "CCNE1144-152 (cyclin E1 derived nonameric peptide) (from UniProt P24864 147-155)", "values": [{"measurement": "FI CCNE1144-152/FI PR1", "setting": "[3]", "result": 1.01}]}
{"molecule": "CC[C@H](C)[C@H](NC(=O)[C@H](CCCNC(=N)N)NC(=O)[C@H](CCSC)NC(=O)[C@@H](NC(=O)[C@H](CCC(N)=O)NC(=O)[C@H](CCC(=O)O)NC(=O)[C@H](Cc1ccccc1)NC(=O)[C@H](CC(C)C)NC(=O)[C@@H](N)CCCNC(=N)N)C(C)C)C(=O)O", "note": "[MY4, RLFEQVMRI]", "values": [{"measurement": "cytotoxicity of CTL line generated against the peptide toward MY2-loaded targets", "setting": "peptide-loaded T2 cells", "result": "did not demonstrate any significant cytotoxicity"}]}
{"molecule": "VLQELNVTV [PR1, VLQELNVTV]", "values": [{"measurement": "dose levels eliminated on the basis of toxicity in Phase I", "setting": "myeloid leukemia", "result": "none of the doses were eliminated on the basis of toxicity"}]}
{"molecule": "CCNE2144-152: Nonameric peptide derived from cyclin E2, predicted to bind to the HLA-A2 allele (ILLDWLLEV)", "values": [{"measurement": "FI peptide/FI PR1", "setting": "HLA-A2", "result": 1.189}, {"measurement": "donors in which peptide-stimulated CTL lines killed CCNE1144-152 and CCNE2144-152-pulsed T2 cells", "setting": "[1]", "result": "4 of 7"}]}
{"molecule": "LIQPFMFRL", "note": "[MY5 peptide (LIQPFMFRL) from myeloperoxidase]", "values": [{"measurement": "binding result", "setting": "[4]", "result": "binds"}]}
{"molecule": "RLFEQVMRI", "note": "[MY4 peptide (RLFEQVMRI) from myeloperoxidase]", "values": [{"measurement": "binding result", "setting": "[4]", "result": "binds"}]}
{"molecule": "LLSYFKQPV", "note": "[MY3 peptide (LLSYFKQPV) from myeloperoxidase]", "values": [{"measurement": "binding result", "setting": "[4]", "result": "binds"}]}
{"molecule": "KLLLALAGL", "note": "[MY2 peptide (KLLLALAGL) from myeloperoxidase]", "values": [{"measurement": "binding result", "setting": "[4]", "result": "binds"}]}
{"molecule": "VLQELNVTV", "note": "[PR1 peptide (VLQELNVTV), HLA-A2.1-restricted nonamer derived from proteinase 3]", "values": [{"measurement": "binding result", "setting": "[4]", "result": "binds"}]}
{"molecule": "SLWRRPFNV", "note": "[MY1 peptide (SLWRRPFNV) from myeloperoxidase]", "values": [{"measurement": "binding result", "setting": "[4]", "result": "binds"}]}
